Assay results reported in US20180185502A1, “IMMOBILIZATION OF BIOMOLECULES BY SELF-ASSEMBLED NANOSTRUCTURES” (priority 2015, published 2018).

Tests used:
Format in all cases: biochemical
R. rubrum RubisCO [1] = target: T1, R. rubrum RubisCO (Rhodospirillum rubrum, UniProt P04718); assay: RubisCO functional assay (activity of free, nanotube-bound or monomer-exposed enzyme); conditions: initial functional assays
T1 sequence (P04718 1-466): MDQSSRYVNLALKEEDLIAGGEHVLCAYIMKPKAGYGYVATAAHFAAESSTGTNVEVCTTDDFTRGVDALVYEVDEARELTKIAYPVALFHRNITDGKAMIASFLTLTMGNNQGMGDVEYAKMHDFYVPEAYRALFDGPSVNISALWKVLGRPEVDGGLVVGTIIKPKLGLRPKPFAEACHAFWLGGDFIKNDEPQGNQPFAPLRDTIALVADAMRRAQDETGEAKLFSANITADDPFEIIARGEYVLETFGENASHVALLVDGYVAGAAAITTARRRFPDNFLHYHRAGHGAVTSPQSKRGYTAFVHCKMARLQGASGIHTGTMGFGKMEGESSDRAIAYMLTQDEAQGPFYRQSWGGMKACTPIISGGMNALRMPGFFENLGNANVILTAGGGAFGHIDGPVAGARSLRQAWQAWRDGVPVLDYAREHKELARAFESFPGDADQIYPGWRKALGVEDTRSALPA

R. rubrum RubisCO [2] = target: T1, R. rubrum RubisCO; assay: as above
Description: Although the samples were identical in purity and composition, the resultant activity of the bound RubisCO varied. […] Thus, by pelleting the nanotube by ultracentrifugation, followed by additional washing of the pellet, prior to adding the enzyme, the activity increased dramatically to 67%.
Nanotubes for this experiment were set up with 10 mM monomer in 1 mL buffer and aged for ˜5 days at room temperature. Nanotubes were then isolated using ultracentrifugation and re-suspended back in 1 mL buffer with 0.1 mg of R. rubrum RubisCO. This suspension was incubated at 1° C. for 15 hrs prior to ultracentrifugation and re-suspension of the final nanotubes in 1 mL buffer.

R. rubrum RubisCO [3] = target: T1, R. rubrum RubisCO; assay: Stability of nanotube-RubisCO co-assembly to proteolysis by subtilisin over 45 minutes; conditions: within 45 minutes; FIG. 5
Description: Subtilisin is a non-specific, serine protease capable of rapidly degrading proteins by amide bond cleavage. The stability of the nanotube-RubisCO co-assembly to proteolysis by subtilisin was evaluated over 45 minutes and compared to the free R. rubrum RubisCO. […] In contrast, the bound enzyme retains 75% of its activity upon exposure to the protease over this time range.

[4] = Subtilisin (0.5 μg/ml; 30° C./1 hr)
[5] = RubisCO alone or with pre-formed nanotubes added
[6] = pre-formed nanotubes from 10 mM monomer aged ~5 days, isolated by ultracentrifugation, re-suspended with 0.1 mg RubisCO in 1 mL buffer, 15 hrs

## Pure R. rubrum RubisCO: RubisCO dimer from the bacterium Rhodospirillum rubrum, a CO2-fixing enzyme, free form
R. rubrum RubisCO [1]; Heat (65° C./10 min)
  % Activity retained: 77%
  Activity: 2248 nmol/min/mg
R. rubrum RubisCO [1]; [4]
  % Activity retained: 7%
  Activity: 212 nmol/min/mg
R. rubrum RubisCO [1]; untreated or no treatment stated
  Activity: 2903 nmol/min/mg
R. rubrum RubisCO [1]; untreated or no treatment stated, listed as 0.1 mg/ml R. rubrum RubisCO (after 80K spin)
  Activity: 3007 nmol/min/mg
R. rubrum RubisCO [1]; untreated or no treatment stated, relative to pure R. rubrum RubisCO
  % Activity retained: 100%
R. rubrum RubisCO [1]; untreated or no treatment stated, relative to pure R. rubrum RubisCO, listed as 0.1 mg/ml R. rubrum RubisCO (after 80K spin)
  % Activity retained: 104%
R. rubrum RubisCO [2]; [5]
  % Activity retained: 100%
  Activity: 3405 nmol/min/mg
R. rubrum RubisCO [2]; [6]
  % Activity retained: 100%
  Activity: 1803 nmol/min/mg
R. rubrum RubisCO [3]
  loss of activity in presence of subtilisin: 80%
